Tests used:
[1] = molecular target: the molecule itself; experiment: crystal structure; adGlnK, 1.8 Å, space group P3(2), six chains per asymmetric unit; hanging drop, 292 K, MgCl2, CaCl2, MOPS/HEPES pH 7.1, MPD, PEG 1000, PEG 3350
[2] = molecular target: the molecule itself; experiment: crystal structure; unGlnK, 2.2 Å, space group P4(3)2(1)2, one trimer per asymmetric unit; sitting drop, 292 K, 2.0 M ammonium sulfate, 5%(v/v) 2-propanol

B1: adenylylated GlnK from Corynebacterium glutamicum (natural protein, C. glutamicum)
chain: MKLITAIVKPFTLTDIKDALEQAGVQGMTVTETQGFGQQKGHTEVYRGAEYAVDFVPKVKIEVIISDAQAEEVINIIVETARTGKVGDGKVWMTNIEELVRVRTGERGEAAL
modifications: adenylylated Tyr51 (AMP moiety covalently linked to the hydroxyl group of Tyr51); almost fully adenylylated by mass spectrometry
notes: PII protein GlnK, Corynebacterium glutamicum, UniProt Q79VF2; untagged (stop codon inserted before the Xa-Strep stretch of the vector); Homotrimer; also called adGlnK; AdGlnK
Question: How did the “stoichiometry N” value [1] turn out when B1 was run?
Answer: Its value is 3.

B2: unmodified unadenylylated GlnK from Corynebacterium glutamicum (natural protein, C. glutamicum)
chain: SLHACRMKLITAIVKPFTLTDIKDALEQAGVQGMTVTETQGFGQQKGHTEVYRGAEYAVDFVPKVKIEVIISDAQAEEVINIIVETARTGKVGDGKVWMTNIEELVRVRTGERGEAAL
notes: not part of GlnK; PII protein GlnK, Corynebacterium glutamicum, UniProt Q79VF2; each subunit spans 112 residues; The His tag was cut off with thrombin; Homotrimer; also called unGlnK; UnGlnK; source: E. coli BL21(DE3), purified (HisTrap FF, thrombin cleavage of the His tag, Superdex 75 size-exclusion chromatography); not shown: His tag, N-terminal, cleaved
Question: B2 was tested. Which “stoichiometry N” value [2] did it give?
Answer: Its value is 3.
